Article PMC7375812, “Molecular determinants of large cargo transport into the nucleus” (eLife, 2020)
Where a chain is given by its changes, count along the chain named. Names and notes keep the numbering of the source.

B1: MS2^S37P capsid (bacteriophage MS2 coat protein with S37P and T15C) (natural protein)
chain: MASNFTQFVLVDNGGCGDVTVAPSNFANGVAEWISSNPRSQAYKVTCSVRQSSAQNRKYTIKVEVPKVATQTVGGVELPVAAWRSYLNMELTIPIFATNSDCELIVKAMQGLLKDGNPIPSAIAANSGIY
modifications: the introduced cysteine (T15C) coupled by maleimide to Alexa Fluor 647 or to the NLS peptide Mal-…, in a share of the copies each
notes: coat protein of bacteriophage MS2; The NLS peptide is a branch on the cysteine, not part of the chain; source: E. coli BL21 AI, purified (PEI, ammonium sulphate, tangential flow, size exclusion after labelling); copies: 60
B2: MS2 capsid (wild-type bacteriophage MS2 coat protein with T15C) (natural protein)
chain: B1 chain with P38S
modifications: the introduced cysteine (T15C) coupled by maleimide to Alexa Fluor 647 or to the NLS peptide Mal-…, in a share of the copies each
notes: coat protein of bacteriophage MS2; The NLS peptide is a branch on the cysteine, not part of the chain; source: E. coli BL21 AI, purified (PEI, ammonium sulphate, tangential flow, size exclusion after labelling); copies: 180

Molecular target: the molecule itself
Experiment: negative-stain electron microscopy; purified (and labelled) capsids adsorbed on glow-discharged carbon-coated grids, 2% uranyl acetate

Row | Protein | binding result
1 | B1 | binds
2 | B2 | binds
